According to the supplement of paper PMC10126150:
± gives the standard deviation of the averaged measurements.

Tested on: ATP
Assay: switch fluorescence ratio, 500 uM ATP over buffer (Cy3 cluster intensity, sum of 5 cycles each) (fold (ratio)); higher = stronger signal-on switching upon ATP binding; sequences stand for … in TCGTCGGCAGCGTCAGATGTGTATAAGAGACAGTTTTTTTTTTTTTTTTTTTTTTTTT…TC
Conditions: aptamer strand: ATP DNA aptamer (quencher-CACCTGGGGGAGTATTGCGGAGGAAGG + anchor), 100 nM annealed; ATP concentration: 500 uM
Procedure, shortened: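 Imaging in selection buffer was followed by imaging after 15 min with 500 uM ATP at 22 °C, for Cy3-labelled switching-strand clusters annealed to 100 nM quencher-labelled ATP aptamer on a modified Illumina MiSeq flow-cell. Five of these buffer/ATP cycles ran, separated by NaOH stripping and re-annealing. The fluorescence ratio per cluster is summed target-cycle over summed buffer-cycle Cy3 intensity, averaged per switch-domain sequence; clusters outside 100-1000 RFU were removed.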
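Note: ATP exposure 15 min at 22 °C before imaging.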

## GGTACTCTTT
  switch fluorescence ratio: 1 ± 0.037

## GGTACTGGGA
  switch fluorescence ratio: 0.997 ± 0.0025

## GGTAGAGACT
  switch fluorescence ratio: 0.9755 ± 0.0023

## GGTAGAGGGC
  switch fluorescence ratio: 0.973 ± 0.061

## GGTAGAGTTG
  switch fluorescence ratio: 0.9758 ± 0.0062

## GGTAGATGTC
  switch fluorescence ratio: 1.01 ± 0.054

## GGTAGCGGGG
  switch fluorescence ratio: 1.02 ± 0.014

## GGTAGGAAAA
  switch fluorescence ratio: 0.972 ± 0.076

## GGTAGGAGCT
  switch fluorescence ratio: 1.02 ± 0.058

## GGTAGGGAGC
  switch fluorescence ratio: 0.993 ± 0.055

## GGTAGGGTGC
  switch fluorescence ratio: 0.985 ± 0.074

## GGTAGTACGG
  switch fluorescence ratio: 0.983 ± 0.014

## GGTAGTAGAG
  switch fluorescence ratio: 1.02 ± 0.011

## GGTAGTAGTA
  switch fluorescence ratio: 1 ± 0.034

## GGTAGTGAGT
  switch fluorescence ratio: 0.9765 ± 0.0078

## GGTAGTGTGG
  switch fluorescence ratio: 0.992 ± 0.023

## GGTATAGGCT
  switch fluorescence ratio: 0.996 ± 0.014

## GGTATAGGGT
  switch fluorescence ratio: 0.981 ± 0.01

## GGTATCGGTA
  switch fluorescence ratio: 1.005 ± 0.0094

## GGTATCGGTT
  switch fluorescence ratio: 0.992 ± 0.045

## GGTATGACCC
  switch fluorescence ratio: 1.0394 ± 0.00014

## GGTATGAGAC
  switch fluorescence ratio: 1.01 ± 0.044

## GGTATGGAGT
  switch fluorescence ratio: 1.013 ± 0.0057

## GGTATGGGAT
  switch fluorescence ratio: 1.022 ± 0.0059

## GGTATGGGGG
  switch fluorescence ratio: 1.02 ± 0.031

## GGTATGTGTT
  switch fluorescence ratio: 0.987 ± 0.04

## GGTATTACGT
  switch fluorescence ratio: 0.972 ± 0.032

## GGTATTGGGG
  switch fluorescence ratio: 1.03 ± 0.034

## GGTATTTACA
  switch fluorescence ratio: 1.034 ± 0.0033

## GGTCAAGCTG
  switch fluorescence ratio: 1 ± 0.044

## GGTCAGGGTC
  switch fluorescence ratio: 1.01 ± 0.062

## GGTCATCTTG
  switch fluorescence ratio: 0.975 ± 0.02

## GGTCATTTTT
  switch fluorescence ratio: 0.995 ± 0.021

## GGTCCAGTGA
  switch fluorescence ratio: 1.02 ± 0.023

## GGTCCATGGG
  switch fluorescence ratio: 0.967 ± 0.035

## GGTCCGCATA
  switch fluorescence ratio: 2.82 ± 1.2

## GGTCCGTCGT
  switch fluorescence ratio: 1.02 ± 0.038

## GGTCCGTTTC
  switch fluorescence ratio: 1.01 ± 0.056

## GGTCCTGGAC
  switch fluorescence ratio: 1.02 ± 0.019

## GGTCCTGGTT
  switch fluorescence ratio: 0.9859 ± 0.0021

## GGTCGAGGTT
  switch fluorescence ratio: 0.991 ± 0.035

## GGTCGCAGGG
  switch fluorescence ratio: 1 ± 0.026

## GGTCGCGGGT
  switch fluorescence ratio: 1 ± 0.038

## GGTCGGCATA
  switch fluorescence ratio: 1.01 ± 0.042

## GGTCGGGGAT
  switch fluorescence ratio: 1.01 ± 0.022

## GGTCGGTAGA
  switch fluorescence ratio: 0.998 ± 0.015

## GGTCGTTGAA
  switch fluorescence ratio: 1.02 ± 0.057

## GGTCTACAGA
  switch fluorescence ratio: 1.02 ± 0.011

## GGTCTACTAG
  switch fluorescence ratio: 0.999 ± 0.04

## GGTCTAGGGT
  switch fluorescence ratio: 1.03 ± 0.025

## GGTCTATTTT
  switch fluorescence ratio: 0.986 ± 0.023

## GGTCTGGTTT
  switch fluorescence ratio: 0.956 ± 0.013

## GGTCTTAGAA
  switch fluorescence ratio: 1.033 ± 0.0062

## GGTCTTGCGA
  switch fluorescence ratio: 0.9755 ± 0.0078

## GGTCTTTAGG
  switch fluorescence ratio: 0.99184 ± 0.00074

## GGTCTTTGAA
  switch fluorescence ratio: 0.979 ± 0.023

## GGTGAAAAGC
  switch fluorescence ratio: 1.02 ± 0.059

## GGTGAAGGTG
  switch fluorescence ratio: 1.355 ± 0.0092

## GGTGAAGTCA
  switch fluorescence ratio: 1 ± 0.024

## GGTGAAGTGT
  switch fluorescence ratio: 1 ± 0.0051

## GGTGAATGGG
  switch fluorescence ratio: 1.01 ± 0.032

## GGTGACGGGC
  switch fluorescence ratio: 0.978 ± 0.045

## GGTGAGATTA
  switch fluorescence ratio: 0.9804 ± 0.0073

## GGTGAGGGCA
  switch fluorescence ratio: 0.99 ± 0.015

## GGTGAGGGTG
  switch fluorescence ratio: 1.1 ± 0.013

## GGTGATACAG
  switch fluorescence ratio: 1.003 ± 0.0051

## GGTGATAGGA
  switch fluorescence ratio: 0.98 ± 0.034

## GGTGATATGT
  switch fluorescence ratio: 0.997 ± 0.018

## GGTGATCCTG
  switch fluorescence ratio: 0.977 ± 0.028

## GGTGATCTTT
  switch fluorescence ratio: 0.965 ± 0.044

## GGTGCAGGGG
  switch fluorescence ratio: 1.11 ± 0.023

## GGTGCAGGTG
  switch fluorescence ratio: 1.74 ± 0.59

## GGTGCATGGC
  switch fluorescence ratio: 1.04 ± 0.04

## GGTGCCGGGG
  switch fluorescence ratio: 1.02 ± 0.042

## GGTGCCGGTT
  switch fluorescence ratio: 0.997 ± 0.054

## GGTGCCTGTT
  switch fluorescence ratio: 1 ± 0.011

## GGTGCGCCTT
  switch fluorescence ratio: 0.958 ± 0.013

## GGTGCGGGTG
  switch fluorescence ratio: 1.03 ± 0.051

## GGTGCTAAGG
  switch fluorescence ratio: 1.02 ± 0.021

## GGTGCTGCTA
  switch fluorescence ratio: 0.984 ± 0.019

## GGTGCTTTGG
  switch fluorescence ratio: 0.993 ± 0.046

## GGTGCTTTTT
  switch fluorescence ratio: 0.987 ± 0.023

## GGTGGAAGGA
  switch fluorescence ratio: 1.02 ± 0.029

## GGTGGCAAAT
  switch fluorescence ratio: 1.01 ± 0.013

## GGTGGCCGGT
  switch fluorescence ratio: 0.987 ± 0.021

## GGTGGCGGAA
  switch fluorescence ratio: 0.996 ± 0.037

## GGTGGCGGGG
  switch fluorescence ratio: 0.987 ± 0.019

## GGTGGCTTGC
  switch fluorescence ratio: 1.014 ± 0.0032

## GGTGGGACGG
  switch fluorescence ratio: 0.991 ± 0.039

## GGTGGGAGGC
  switch fluorescence ratio: 0.999 ± 0.059

## GGTGGGATGC
  switch fluorescence ratio: 1.02 ± 0.076

## GGTGGGGAGC
  switch fluorescence ratio: 1 ± 0.021

## GGTGGGGTGC
  switch fluorescence ratio: 1.01 ± 0.046

## GGTGGGTGTC
  switch fluorescence ratio: 0.974 ± 0.016

## GGTGGGTTTG
  switch fluorescence ratio: 1.03 ± 0.024

## GGTGGTCAGC
  switch fluorescence ratio: 1.012 ± 0.0049

## GGTGGTCCCT
  switch fluorescence ratio: 0.99 ± 0.04

## GGTGGTGGCC
  switch fluorescence ratio: 1.01 ± 0.023

## GGTGGTTATC
  switch fluorescence ratio: 1.01 ± 0.021

## GGTGGTTATT
  switch fluorescence ratio: 0.996 ± 0.014
